Source: patent US20220155309A1 (NATIONAL UNIVERSITY CORPORATION TOKYO MEDICAL AND DENTAL …, published 2022)
Changes are numbered by the printed parent chain.

Experiments:
[1] = molecular target: T1, Affimer that binds to actin with ALFA-tag introduced (SEQ ID No: 41); assay: fluorescence polarization microscopy of HeLaM cells expressing the ALFA-tagged Affimer, detected with the anti-ALFA-tag Nanobody-cp176-172mVenus fusion
T1 construct: Expressed in HeLaM cells; also called fusion protein of Affimer and an ALFA-tag; Affimer with ALFA-tag introduced
T1 chain: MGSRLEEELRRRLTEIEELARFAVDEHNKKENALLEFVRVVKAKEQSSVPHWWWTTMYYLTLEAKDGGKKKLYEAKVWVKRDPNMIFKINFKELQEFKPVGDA
From the text: Specifically, an ALFA-tag (SEQ ID No: 40) was introduced into an Affimer (SEQ ID No: 2) that binds to F-actin as a model system for verifying the above detection system, to obtain a fusion protein having the amino acid sequence set forth in SEQ ID No: 41. This fusion protein was expressed in HeLaM cells. A fusion protein of an anti-ALFA-tag Nanobody (SEQ ID No: 42) and cp176-172mVenus (SEQ ID No: 43) were brought into contact, and fluorescence polarization was observed. The fusion protein of anti-ALFA-tagged Nanobody and cp176-172mVenus was a fusion protein suitable for observation of fluorescence polarization, in which the Nanobody and the cp176-172mVenus were tightly linked (c.f. Example 5).

vimentin [2] = molecular target: T2, vimentin (UniProt P08670 2-466, limits assumed); assay: fluorescence polarization microscopy of cells expressing the fusion protein
T2 construct: whole, on cells; Endogenous intracellular intermediate filament; also called vimentin fibers; intracellular vimentin
T2 sequence (P08670 2-466 limits assumed): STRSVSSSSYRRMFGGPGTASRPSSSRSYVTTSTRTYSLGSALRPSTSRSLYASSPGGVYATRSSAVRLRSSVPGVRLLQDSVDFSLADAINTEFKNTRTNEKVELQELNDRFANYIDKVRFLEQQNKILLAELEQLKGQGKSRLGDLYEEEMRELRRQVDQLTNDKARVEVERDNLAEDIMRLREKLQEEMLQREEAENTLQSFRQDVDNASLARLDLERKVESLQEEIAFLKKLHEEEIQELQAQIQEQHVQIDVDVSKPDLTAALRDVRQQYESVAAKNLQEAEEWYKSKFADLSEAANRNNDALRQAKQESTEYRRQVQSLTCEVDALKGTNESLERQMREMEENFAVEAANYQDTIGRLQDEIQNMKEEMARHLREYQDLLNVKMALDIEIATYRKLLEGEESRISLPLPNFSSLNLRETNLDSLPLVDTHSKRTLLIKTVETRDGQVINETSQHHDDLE
From the text: (§1) An expression vector in which DNA encoding the fusion protein designed was placed under an appropriate promoter was introduced by a lipofection method (Avalanche-Everyday Transfection Reagent), thereby allowing HeLa cells to express the above fusion protein. The cells expressing the fusion protein were observed by fluorescence polarization microscopy.
(§2) The orientation of polarization was different from that in the previous cp-sfGFP. The cp-sfGFP of Example 5 and the cp176-172mVenus used in this example were basically the same type of fluorescent proteins but different in the position of cp.

vimentin [3] = molecular target: T2, vimentin; assay: fluorescence polarization microscopy of HeLa cells expressing the fusion protein
From the text: as §1, §2

B1: fusion protein of anti-ALFA-tag Nanobody and cp176-172mVenus (SEQ ID No: 43) (VHH)
VHH: EVQLQESGGGLVQPGGSLRLSCTASGVTISALNAMAMGWYRQAPGERRVMVAAVSERGNAMYRESVQGRFTVTRDFTNKMVSLQMDNLKPEDTAVYYCHVLEDRVDSFHDYWGQGTQVTVVQ
[1]
  binding result: binds

B2: fusion protein of Nanobody that binds to vimentin and cpmTurquoise2 (SEQ ID No: 25) (VHH)
VHH: QVQLVESGGGLVQSGGSLTLTCAASGFTFSAASMRWVRQVPGKGLEWVATIDGTGANSYYSESAKGRFTISRDNARNTLRLQMNNLKPDDTAVYYCANFGRNYWGKGTQVTVVV
Vimentin [2]
  binding result: binds

B3: fusion protein of vimentin-binding Nanobody and cp-sfGFP (SEQ ID No: 17) (VHH)
VHH: B2 VHH
notes: Expressed inside HeLa cells; beta-sheet to beta-sheet linkage; also called fusion protein of cp-sfGFP and Nanobody
Vimentin [3]
  binding result: binds

B4: fusion protein of vimentin-binding Nanobody and mApple (SEQ ID No: 19) (VHH)
VHH: B2 VHH with V113M, V114A
notes: Expressed inside HeLa cells; also called fusion protein of mApple and Nanobody
Vimentin [3]
  binding result: binds

B5: fusion protein of Nanobody that binds to vimentin and cp176-172mVenus (SEQ ID No: 31) (VHH)
VHH: B2 VHH
notes: Expressed inside HeLa cells
Vimentin [3]
  binding result: binds

B6: fusion protein of Nanobody that binds to vimentin and cpmVenus (SEQ ID No: 26) (VHH)
VHH: B2 VHH
Vimentin [2]
  binding result: binds
